Laboratory results: publication PMC11524583, “Neurons enhance blood–brain barrier function via upregulating claudin-5 and VE-cadherin expression due to glial cell line-derived neurotrophic factor secretion” (eLife, 2024)
“And” between values parts separate entries of the source, which are not always exact repeats. Equal values may be shown once.

Experiments:
FOXO1 = test: Western blot of FOXO1 (p-FOXO1/FOXO1, total, cytoplasmic, nuclear) in hCMEC/D3 cells; type: cell-based, Homo sapiens; settings: hCMEC/D3 cells; GDNF or US-CM
Experimental: (§1) Whole-cell and tissue lysates, nucleoprotein, and cytoplasmic protein were prepared using RIPA Lysis Buffer (Beyotime, Shanghai, China) as the described method ([Wu et al., 2021]). Proteins were separated through sodium dodecyl sulfate–polyacrylamide gel electrophoresis and transferred onto nitrocellulose or polyvinylidene difluoride membranes. The membranes were blocked with 5% skim milk and incubated with corresponding primary antibodies at 4°C overnight. After being washed with Tris-buffered saline Tween buffer, the membranes were incubated with secondary antibodies (Cell Signaling Technology, MA, USA) at 1:3000 dilution: Anti-mouse IgG, HRP-linked Antibody (#7076), Anti-rabbit IgG, HRP-linked Antibody (#7074). Protein levels were visualized using a highly sensitive ECL western blotting substrate and a gel imaging system (Tanon Science & Technology, Shanghai, China).
(§2) Here, hCMEC/D3 cells were plated in the plates or culture dishes at 6 × 10^4 cells/cm^2 and transfected with 10 nM of negative control or human FOXO1, ETS1, and CDH5 siRNA (Tsingke Biotechnology, Beijing, China) for 12 hr using Lipofectamine 3000 (Invitrogen, Carlsbad, CA, USA) reagent according to the manufacturer’s instructions. Cells were then incubated with a medium containing GDNF for 72 hr.
The plasmids encoding FOXO1 (EX-Z7404-M02) were constructed by GeneCopoeia (Rockville, MD, USA). The hCMEC/D3 cells were plated in plates or dishes at 6 × 10^4 cells/cm^2. They were subsequently transfected with 1 µg of negative control or plasmids encoding FOXO1 6 hr using Lipofectamine 3000 reagent according to the manufacturer’s instructions. Transfected cells were then incubated with the medium containing GDNF for 72 hr.

claudin-5 = test: Western blot of claudin-5 in primary rat brain microvascular endothelial cells; type: cell-based; settings: primary rat BMECs, 200 pg/ml GDNF or US-CM
Experimental: (§3) Then, hCMEC/D3, U251, and SH-SY5Y cells were cultured in DMEM/F12 containing 10% FBS, 62.5 µg/ml penicillin and 100 µg/ml streptomycin. Cell viability was assessed using a CCK-8 kit (Beyotime Biotechnology, Shanghai, China), and the results were expressed as the fold of control.
as §1

[1] = tested on: hCMEC/D3 mono-culture BBB model; test: TEER of hCMEC/D3 mono-culture BBB model; type: cell-based, Homo sapiens; settings: for TEER: individual replicates
p-p38/p38 = test: Western blot of p-p38/p38 in hCMEC/D3 cells; type: cell-based, Homo sapiens
Experimental: as §1

p-AKT/AKT = test: Western blot of p-AKT/AKT in hCMEC/D3 cells; type: cell-based, Homo sapiens
Experimental: as §1
Exogenous and endogenous GDNF in the medium was neutralized with anti-GDNF antibody (#AF-212-NA, R&D system, Minneapolis, MN, USA). 0.25, 0.5, and 1.0 μg/ml anti-GDNF antibody was added into the US-CM or medium containing 200 pg/ml GDNF, and then the medium was preincubated at 4°C for 1 hr. The hCMEC/D3 cells were incubated with 200 pg/ml GDNF or US-CM containing anti-GDNF antibody or not for 6 days, and then cell lysate was collected for western blot. The medium was replaced every 24 hr.

ETS1 = test: Western blot of total and nuclear ETS1 in hCMEC/D3 cells; type: cell-based, Homo sapiens; settings: for ETS1/β-actin Relative Expression, Mean / ETS1/Lamin B Relative Expression, Mean: group mean; for ETS1/β-actin Relative Expression / ETS1/Lamin B Relative Expression: individual replicates
Experimental: as §1, §2

VE-cadherin = test: Western blot of VE-cadherin in primary rat brain microvascular endothelial cells; type: cell-based; settings: primary rat BMECs, 200 pg/ml GDNF or US-CM
Experimental: as §3, §1

[2] = relative to Con, single replicate (Figure 2J)

B1: GDNF: glial cell line-derived neurotrophic factor, recombinant protein (R&D system) (protein, UniProt P39905 78-211, looked up)
Glial cell line-derived …: SPDKQMAVLPRRERNRQAAAANPENSRGKGRRGQRGKNRGCVLTAIHLNVTDLGLGYETKEELIFRYCSGSCDAAETTYDKILKNLSRNRRLVSDKVGQACCRPIAFDDDLSFLDDNLVYHILRKHSAKRCGCI
FOXO1 phosphorylation (p-FOXO1) (FOXO1): significantly enhanced
levels of nuclear FOXO1 (FOXO1): decreased
levels of phosphorylated and unphosphorylated FOXO1 in the cytoplasm (FOXO1): increased
Claudin-5/β-actin Relative Expression, Mean (claudin-5; Con = 1.000 (Figure 2J)): 1.469
Claudin-5/β-actin Relative Expression (claudin-5; [2]): 1.317 and 1.479 and 1.586 and 1.495
TEER ([1]; Figure 2M, Day3): 61.71 Ω·cm2 and 62.7 Ω·cm2 and 62.37 Ω·cm2
TEER ([1]; Figure 2M, Day4): 64.35 Ω·cm2 and 63.69 Ω·cm2 and 66 Ω·cm2 and 65.34 Ω·cm2
TEER ([1]; Figure 2M, Day5): 68.31 Ω·cm2 and 66.99 Ω·cm2 and 67.65 Ω·cm2 and 67.32 Ω·cm2
TEER ([1]; Figure 2M, Day6): 69.3 Ω·cm2 and 67.32 Ω·cm2 and 68.64 Ω·cm2 and 66.99 Ω·cm2
TEER ([1]; Figure 2O, Day3): 71.61 Ω·cm2 and 69.3 Ω·cm2 and 68.64 Ω·cm2 and 69.63 Ω·cm2
TEER ([1]; Figure 2O, Day4): 74.25 Ω·cm2 and 76.23 Ω·cm2 and 72.27 Ω·cm2 and 74.91 Ω·cm2
TEER ([1]; Figure 2O, Day5): 77.22 Ω·cm2 and 72.93 Ω·cm2 and 74.58 Ω·cm2 and 77.55 Ω·cm2
TEER ([1]; Figure 2O, Day6): 76.23 Ω·cm2 and 73.92 Ω·cm2 and 76.56 Ω·cm2
TEER values ([1]; hCMEC/D3 mono-culture, 200 pg/ml GDNF, day 6): significantly increased
phosphorylation of p38 (p-p38/p38; hCMEC/D3 cells, 200 pg/ml GDNF): did not stimulate
p-p38/p38 Relative Expression Mean (p-p38/p38; relative to Con (mean 1.000), mean of 4, Figure 3D): 0.924
p-p38/p38 Relative Expression (p-p38/p38; relative to Con (mean 1.000), single replicates, Figure 3D): 0.949 and 0.886 and 0.913 and 0.946
phosphorylation of AKT (p-AKT) (p-AKT/AKT; hCMEC/D3 cells, 200 pg/ml GDNF or US-CM): accompanied by the phosphorylation
p-AKT/AKT Relative Expression, Mean (p-AKT/AKT; mean of 4, relative to Con, GDNF alone, Figure 3E): 1.284
p-AKT/AKT Relative Expression, Mean (p-AKT/AKT; relative to Con (mean 1.000), mean of 4, Figure 3A): 1.345
p-AKT/AKT Relative Expression (p-AKT/AKT; relative to Con (mean 1.000), single replicates, Figure 3A): 1.311 and 1.24 and 1.38 and 1.4488
p-AKT/AKT Relative Expression (p-AKT/AKT; single replicate, relative to Con, GDNF alone, Figure 3E): 1.359 and 1.208 and 1.388 and 1.180
ETS1/β-actin Relative Expression, Mean (ETS1; Figure 5A, Con = 1.000): 1.877
ETS1/β-actin Relative Expression (ETS1; Figure 5A, relative to Con): 1.777 and 1.712 and 2.125 and 1.893
ETS1/Lamin B Relative Expression, Mean (ETS1; Figure 5B, Con = 1.000): 1.560
ETS1/Lamin B Relative Expression (ETS1; Figure 5B, relative to Con): 1.659 and 1.595 and 1.316 and 1.670
ETS1/β-actin Relative Expression, Mean (ETS1; Figure 5C, Con = 1.000, GDNF group of LY and U0 inhibitor experiment): 1.287
ETS1/β-actin Relative Expression (ETS1; Figure 5C, relative to Con, GDNF group of LY and U0 inhibitor experiment): 1.182 and 1.224 and 1.389 and 1.354
ETS1/Lamin B Relative Expression, Mean (ETS1; Figure 5D, Con = 1.000): 2.084
ETS1/Lamin B Relative Expression (ETS1; Figure 5D, relative to Con): 1.875 and 2.209 and 2.073 and 2.180
ETS1/β-actin Relative Expression, Mean (ETS1; Figure 5E, NC = 1.000): 1.499
ETS1/β-actin Relative Expression (ETS1; Figure 5E, relative to NC): 1.466 and 1.523 and 1.519 and 1.490
ETS1/Lamin B Relative Expression, Mean (ETS1; Figure 5F, NC = 1.000): 1.528
ETS1/Lamin B Relative Expression (ETS1; Figure 5F, relative to NC): 1.629 and 1.498 and 1.595 and 1.392
nuclear ETS1 expression (ETS1; hCMEC/D3 cells, US-CM or GDNF): significantly increased
total ETS1 expression (ETS1; hCMEC/D3 cells, US-CM or GDNF): significantly increased
VE-cadherin/β-actin Relative Expression, Mean (VE-cadherin; Con = 1.000 (Figure 2J)): 1.773
VE-cadherin/β-actin Relative Expression (VE-cadherin; [2]): 2.095 and 1.692 and 1.731 and 1.576
